{"source": "IntAct's records for PubMed 12006496", "parents": {"B1": {"name": "Phytochrome A (Arabidopsis thaliana (Mouse-ear cress)), P14712 (parent)", "chain": "MSGSRPTQSSEGSRRSRHSARIIAQTTVDAKLHADFEESGSSFDYSTSVRVTGPVVENQPPRSDKVTTTYLHHIQKGKLIQPFGCLLALDEKTFKVIAYSENASELLTMASHAVPSVGEHPVLGIGTDIRSLFTAPSASALQKALGFGDVSLLNPILVHCRTSAKPFYAIIHRVTGSIIIDFEPVKPYEVPMTAAGALQSYKLAAKAITRLQSLPSGSMERLCDTMVQEVFELTGYDRVMAYKFHEDDHGEVVSEVTKPGLEPYLGLHYPATDIPQAARFLFMKNKVRMIVDCNAKHARVLQDEKLSFDLTLCGSTLRAPHSCHLQYMANMDSIASLVMAVVVNEEDGEGDAPDATTQPQKRKRLWGLVVCHNTTPRFVPFPLRYACEFLAQVFAIHVNKEVELDNQMVEKNILRTQTLLCDMLMRDAPLGIVSQSPNIMDLVKCDGAALLYKDKIWKLGTTPSEFHLQEIASWLCEYHMDSTGLSTDSLHDAGFPRALSLGDSVCGMAAVRISSKDMIFWFRSHTAGEVRWGGAKHDPDDRDDARRMHPRSSFKAFLEVVKTRSLPWKDYEMDAIHSLQLILRNAFKDSETTDVNTKVIYSKLNDLKIDGIQELEAVTSEMVRLIETATVPILAVDSDGLVNGWNTKIAELTGLSVDEAIGKHFLTLVEDSSVEIVKRMLENALEGTEEQNVQFEIKTHLSRADAGPISLVVNACASRDLHENVVGVCFVAHDLTGQKTVMDKFTRIEGDYKAIIQNPNPLIPPIFGTDEFGWCTEWNPAMSKLTGLKREEVIDKMLLGEVFGTQKSCCRLKNQEAFVNLGIVLNNAVTSQDPEKVSFAFFTRGGKYVECLLCVSKKLDREGVVTGVFCFLQLASHELQQALHVQRLAERTAVKRLKALAYIKRQIRNPLSGIMFTRKMIEGTELGPEQRRILQTSALCQKQLSKILDDSDLESIIEGCLDLEMKEFTLNEVLTASTSQVMMKSNGKSVRITNETGEEVMSDTLYGDSIRLQQVLADFMLMAVNFTPSGGQLTVSASLRKDQLGRSVHLANLEIRLTHTGAGIPEFLLNQMFGTEEDVSEEGLSLMVSRKLVKLMNGDVQYLRQAGKSSFIITAELAAANK", "partner": "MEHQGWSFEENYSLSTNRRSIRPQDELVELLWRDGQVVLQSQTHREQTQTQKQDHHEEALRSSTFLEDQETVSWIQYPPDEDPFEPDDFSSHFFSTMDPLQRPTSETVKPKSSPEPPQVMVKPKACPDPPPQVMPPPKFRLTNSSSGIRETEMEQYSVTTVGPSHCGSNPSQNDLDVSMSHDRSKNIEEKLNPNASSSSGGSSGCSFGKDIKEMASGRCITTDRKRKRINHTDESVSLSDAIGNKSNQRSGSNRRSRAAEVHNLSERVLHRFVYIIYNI"}, "B2": {"name": "Phytochrome B (Arabidopsis thaliana (Mouse-ear cress)), P14713 (parent)", "chain": "MVSGVGGSGGGRGGGRGGEEEPSSSHTPNNRRGGEQAQSSGTKSLRPRSNTESMSKAIQQYTVDARLHAVFEQSGESGKSFDYSQSLKTTTYGSSVPEQQITAYLSRIQRGGYIQPFGCMIAVDESSFRIIGYSENAREMLGIMPQSVPTLEKPEILAMGTDVRSLFTSSSSILLERAFVAREITLLNPVWIHSKNTGKPFYAILHRIDVGVVIDLEPARTEDPALSIAGAVQSQKLAVRAISQLQALPGGDIKLLCDTVVESVRDLTGYDRVMVYKFHEDEHGEVVAESKRDDLEPYIGLHYPATDIPQASRFLFKQNRVRMIVDCNATPVLVVQDDRLTQSMCLVGSTLRAPHGCHSQYMANMGSIASLAMAVIINGNEDDGSNVASGRSSMRLWGLVVCHHTSSRCIPFPLRYACEFLMQAFGLQLNMELQLALQMSEKRVLRTQTLLCDMLLRDSPAGIVTQSPSIMDLVKCDGAAFLYHGKYYPLGVAPSEVQIKDVVEWLLANHADSTGLSTDSLGDAGYPGAAALGDAVCGMAVAYITKRDFLFWFRSHTAKEIKWGGAKHHPEDKDDGQRMHPRSSFQAFLEVVKSRSQPWETAEMDAIHSLQLILRDSFKESEAAMNSKVVDGVVQPCRDMAGEQGIDELGAVAREMVRLIETATVPIFAVDAGGCINGWNAKIAELTGLSVEEAMGKSLVSDLIYKENEATVNKLLSRALRGDEEKNVEVKLKTFSPELQGKAVFVVVNACSSKDYLNNIVGVCFVGQDVTSQKIVMDKFINIQGDYKAIVHSPNPLIPPIFAADENTCCLEWNMAMEKLTGWSRSEVIGKMIVGEVFGSCCMLKGPDALTKFMIVLHNAIGGQDTDKFPFPFFDRNGKFVQALLTANKRVSLEGKVIGAFCFLQIPSPELQQALAVQRRQDTECFTKAKELAYICQVIKNPLSGMRFANSLLEATDLNEDQKQLLETSVSCEKQISRIVGDMDLESIEDGSFVLKREEFFLGSVINAIVSQAMFLLRDRGLQLIRDIPEEIKSIEVFGDQIRIQQLLAEFLLSIIRYAPSQEWVEIHLSQLSKQMADGFAAIRTEFRMACPGEGLPPELVRDMFHSSRWTSPEGLGLSVCRKILKLMNGEVQYIRESERSYFLIILELPVPRKRPLSTASGSGDMMLMMPY", "partner": "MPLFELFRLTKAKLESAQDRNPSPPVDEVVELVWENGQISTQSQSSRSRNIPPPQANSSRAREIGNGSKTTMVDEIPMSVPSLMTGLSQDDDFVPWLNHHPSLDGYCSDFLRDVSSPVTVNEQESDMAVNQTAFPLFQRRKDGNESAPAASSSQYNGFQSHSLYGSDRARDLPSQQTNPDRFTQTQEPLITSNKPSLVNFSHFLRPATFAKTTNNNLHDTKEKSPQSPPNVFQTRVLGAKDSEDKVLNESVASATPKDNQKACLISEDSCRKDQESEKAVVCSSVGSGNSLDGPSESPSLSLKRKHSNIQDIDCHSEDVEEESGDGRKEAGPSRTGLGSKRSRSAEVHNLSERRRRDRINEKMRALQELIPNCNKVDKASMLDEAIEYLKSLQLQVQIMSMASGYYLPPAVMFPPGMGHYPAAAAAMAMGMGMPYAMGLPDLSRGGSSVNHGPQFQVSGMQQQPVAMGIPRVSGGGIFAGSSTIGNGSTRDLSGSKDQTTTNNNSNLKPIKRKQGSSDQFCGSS"}, "B3": {"name": "Phytochrome B (Arabidopsis thaliana (Mouse-ear cress)), P14713 (parent)", "chain": "B2 chain", "partner": "B1 partner"}, "B4": {"name": "Phytochrome A (Arabidopsis thaliana (Mouse-ear cress)), P14712 (parent)", "chain": "B1 chain", "partner": "B2 partner"}}}
{"variants_of": "B1", "conditions": "with PIF4, Q8W2F3-2"}
{"variant": "A715V", "effect of a mutation on the interaction": "decreasing interaction"}
{"variant": "G787E", "effect of a mutation on the interaction": "decreasing interaction"}
{"variants_of": "B2", "conditions": "with pif3_arath PIF3, O80536"}
{"variant": "G767R", "effect of a mutation on the interaction": "decreasing interaction"}
{"variants_of": "B3", "conditions": "with PIF4, Q8W2F3-2"}
{"variant": "G767R", "effect of a mutation on the interaction": "decreasing interaction"}
{"variants_of": "B4", "conditions": "with pif3_arath PIF3, O80536"}
{"variant": "A715V", "effect of a mutation on the interaction": "decreasing interaction"}
{"variant": "G750E", "effect of a mutation on the interaction": "decreasing interaction"}
